Laboratory results taken from patent US20080044436A1, “Method for Screening and Compositions for Treating Cancers” (priority 2004, published 2008).

System: ER
Test: GST pull-down, TReP-132 and ER
Format: binding
Details: GST pull-down with 35S-ER
Experimental: GST-TReP-132 wt was analyzed in terms of the interaction with the ^35[S]-ER, as described previously.
In order to evaluate the interaction of TReP-132, Sp1, ER and PR, the wt and mutant GST-TReP-132 fusion proteins were expressed, then immobilized on glutathione-Sepharose as described (Frangioni and Neel, 1993; Monte et al., 1998). The ^35S-[Sp1], ^35S-[ER] and ^35S-[PR-B] proteins were synthesized in vitro using a rabbit reticulocyte lysate and T7 RNA polymerase system as directed by the manufacturer (Promega Corporation, Madison, Wis.). Proteins which bound, then detached from the Sepharose after being heated to boiling in SDS buffer were then separated on a 10% SDS-PAGE gel. The gels were stained with Coomassie blue, dried and autoradiographed.

B1: TReP-132: Transcriptional Regulating Protein of 132 kDa, polypeptide comprising SEQ ID NO: 2; here expressed in cells from vectors (protein)
chain: MGDQQLYKTNHVAHGSENLFYQQPPLGVHSGLNHNYGNAVTGGGMDAPQASPISPHFPQDTRDGLGLPVGSKNLGQMDTSRQGGWGSHAGPGNHVQLRGNLANSNMMWGAPAQAEPTDGYQYTYSQASEIRTQKLTSGVLHKLDSFTQVFANQNLRIQVNNMAQVLHTQSAVMDGAPDSALRQLLSQKPMEPPAPAIPSRYQQVPQQPHPGFTGGLSKPALQVGQHPTQGHLYYDYQQPLAQVPVQGGQPLQAPQMLSQHMQQMQQHQYYPPQQQQQAGQQRISMQEIQTQPQQIRPSQPQPPPQQQQPQQLQLQQRQGSMQIPQYYQPQPMMQHLQEQQQQQMHLQPPSYHRDPHQYTPEQAHTVQLIPLGSMSQYYYQEPQQPYSHPLYQQSHLSQHQQREDSQLKTYSSDRQAQAMLSSHGDLGPPDTGMGDPASSDLTRVSSTLPHRPLLSPSGIHLNNMGPQHQQLSPSAMWPQMHLPDGRAQPGSPESSGQPKGAFGEQFDAKNKLTCSICLKEFKNLPALNGHMRSHGGMRASPNLKQEEGEKVLPPQPQPPLPPPPPPPPPPQLPPEAESLTPMVMPVSVPVKLLPPKPSSQGFTNSTVAAPSARDKPASSMSDDEMPVLEIPRKHQPSVPKAEEPLKTVQEKKKFRHRPEPLFIPPPPSYNPNPAASYSGATLYQSQLRSPRVLGDHLLLDPTHELPPYTPPPMLSPVRQGSGLFSNVLISGHGPGAHPQLPLTPLTPTPRVLLCRSNSIDGSNVTVTPGPGEQTVDVEPRINIGLRFQAEIPELQDISALAQDTHKATLVWKPWPELENHDLQQRVENLLNLCCSSALPGGGTNSEFALHSLFEAKGDVMVALEMLLLRKPVRLKCHPLANYHYAGSDKWTSLERKLFNKALATYSKDFIFVQKMVKSKTVAQCVEYYYTWKKIMRLGRKHRTRLAEIIDDCVTSEEEEELEEEEEEDPEEDRKSTKEEESEVPKSPEPPPVPVLAPTEGPPLQALGQPSGSFICEMPNCGAVFSSRQALNGHARIHGGTNQVTKARGAIPSGKQKPGGTQSGYCSVKSSPSHSTTSGETDPTTIFPCKECGKVFFKIKSRNAHMKTHRQQEEQQRQKAQKAAFAAEMAATIERTTGPVGAPGLLPLDQLSLIKPIKDVDILDDDVVQQLGGVMEEAEVVDTDLLLDDQDSVLLQGDAEL
  interaction with ER: interact
